Source: PMC7017808

What was measured:
[1] = tested on: T1, AdhR-DBD (Clostridium beijerinckii), ORF:f910ab61; assay: EMSA; conditions: Not stated in the material; EMSA as in Zhang et al., 2014, with Cy5-labelled DNA
T1 sequence: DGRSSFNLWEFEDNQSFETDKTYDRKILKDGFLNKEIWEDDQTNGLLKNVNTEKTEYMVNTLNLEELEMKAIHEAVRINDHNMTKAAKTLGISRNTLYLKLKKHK

[2] = tested on: T2, SigL (sigma-54) (Clostridium beijerinckii), ORF:07123114; assay: EMSA; conditions: Not stated in the material; EMSA as in Zhang et al., 2014, with Cy5-labelled DNA
T2 sequence: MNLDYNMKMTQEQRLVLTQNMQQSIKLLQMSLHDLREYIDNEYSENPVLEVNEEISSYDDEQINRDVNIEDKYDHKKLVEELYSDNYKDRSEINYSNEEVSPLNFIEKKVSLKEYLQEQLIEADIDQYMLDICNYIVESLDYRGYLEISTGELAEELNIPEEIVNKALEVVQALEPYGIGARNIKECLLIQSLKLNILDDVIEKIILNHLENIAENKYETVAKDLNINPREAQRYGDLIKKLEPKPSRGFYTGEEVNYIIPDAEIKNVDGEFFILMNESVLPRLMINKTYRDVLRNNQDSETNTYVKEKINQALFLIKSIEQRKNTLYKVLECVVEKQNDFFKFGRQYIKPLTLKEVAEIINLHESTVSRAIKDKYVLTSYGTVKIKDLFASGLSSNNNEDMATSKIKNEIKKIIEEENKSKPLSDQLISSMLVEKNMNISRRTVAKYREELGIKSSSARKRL

## AGCCAGTGGCGATAAGAACAAAAAACTCGTAATTCCTCAGAAATATTATATTTAAAGGTTTTAAATTAAGTTATTAAATATATATATAATAAGTTATACATAAATTGATTGTTAAGCATATACTCATTTATATAAATAATTTTTAACAAAGATATGTCCTAAAATAATACAGTATAAATTTAATACAGCGTAATATTTTAGGACATGCTTTATAATCTTATCGCCACTGGCT (double strand) [adhA1 promoter UAS fragment]
[1]
  binding: binds

## AGCCAGTGGCGATAAGTTAAATAAATAAACTATCATGAATCAAAAATTAACAATGTCTAAACTTAAAAAATGCAAAAAAATATATGTCCTAAAAGCATACAGTGTAATAAAACTGAACATTTTATTTATAAATTGTATTTTTTTAATACAGTAAATTTGCATTAGAAAAACTATATTGTTAATAATTAGATTATAAAATTTCAATAAATGGGGAGACTTATCGCCACTGGCT (double strand) [adhA2 promoter UAS fragment]
[1]
  binding: binds

## AGCCAGTGGCGATAAGAAAGTAAAACACATAATAATTGTTTTTAAAGTGTTTTATTATCCTCAAAAGTGCATAAATGCTACGATTGAACTCATGATCACATTTTTATTTCTGCATCAAAAACTTGGCACGGTTATTGCTTTATATATAAGCATAAGAGAAACAAAACAAAATTATATAAAGTATAAAAACAAAAAGTATTAAAAGGAGAGAGCGAACTTATCGCCACTGGCT (double strand) [adhA1 promoter -24/-12 fragment]
[2]
  binding: binds

## AGCCAGTGGCGATAAGTTTTAACCTCTCCTTGGATATTTTTTTTACTAGCATTCATCTATTACACTATTATATAAAGCAAGTTTTATACCAATATTATATTTATACATAAATAAATATAAATCATCTCATAATCGCACAATTCATGAATCGAAGTGTGCAACTTTAAAAAAATAGTGTGTAATTTAACTTACACACTGCCTTATCGCCACTGGCT (double strand) [adhA2 promoter -24/-12 fragment]
[2]
  binding: binds
